Measured values as given in US20110110981A1.

Biological target: purified IgG1
Test: ELISA on dilutions of purified isotype standards

## anti-mouse IgG1 secondary antibody (tool reagent)
  greater affinity than the IgG2a antibody pair: 40%
